Experimental data: PMC8560851

B1: bH1 Fab H3 variant 16_0325 (Fab, V domains shown)
VH: EVQLVESGGGLVQPGGSLRLSCAASGFNIKDTYIHWVRQAPGKGLEWVARIYPTNGYTRYADSVKGRFTISADTSKNTAYLQMNSLRAEDTAVYYCARGGAVAGTGVYYFDYWGQGTLVTVSS
VL: DIQMTQSPSSLSASVGDRVTITCRASQDIPRSISGYVAWYQQKPGKAPKLLIYWGSYLYSGVPSRFSGSGSGTDFTLTISSLQPEDFATYYCQQHYTTPPTFGQGTKVEIK
B2: bH1 Fab H3 variant 14_0112 (Fab, V domains shown)
VH: EVQLVESGGGLVQPGGSLRLSCAASGFNIKDTYIHWVRQAPGKGLEWVARIYPTNGYTRYADSVKGRFTISADTSKNTAYLQMNSLRAEDTAVYYCAKGGSSSGPYHFEYWGQGTLVTVSS
VL: DIQMTQSPSSLSASVGDRVTITCRASQDIPRSISGYVAWYQQKPGKAPKLLIYWGSYLYSGVPSRFSGSGSGTDFTLTISSLQPEDFATYYCQQHYTTPPTFGQGTKVEIK

Biological target: Full-length isoform 165 of human VEGF-A (human) (UniProt P15692)
Assay: SPR; Biacore T200, 25 °C, PBS with 0.05% Tween 20 and 3.4 mM EDTA; VEGF-A amine-coupled to a CM-5 chip; Fab injected in single cycle kinetics with five increasing concentrations; double referenced; fit to a 1:1 Langmuir binding model

Full-length isoform 165 of human VEGF-A (human), sequence (P15692 other isoform, or with tags, fused parts or gaps): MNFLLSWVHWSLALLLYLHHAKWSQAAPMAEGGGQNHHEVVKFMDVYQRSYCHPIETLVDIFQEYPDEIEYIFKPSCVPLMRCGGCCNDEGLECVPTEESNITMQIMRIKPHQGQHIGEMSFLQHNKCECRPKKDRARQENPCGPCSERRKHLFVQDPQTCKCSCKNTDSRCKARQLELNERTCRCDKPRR

Binder | Kd
B1 | 8 nM
B2 | 8 nM
